Experiments:
Test in all cases: cell-based or functional assay
[1] = biological target: T1, human TIGIT on HEK-Blue reporter cells (human, UniProt Q495A1 22-244)
T1 sequence (looked up): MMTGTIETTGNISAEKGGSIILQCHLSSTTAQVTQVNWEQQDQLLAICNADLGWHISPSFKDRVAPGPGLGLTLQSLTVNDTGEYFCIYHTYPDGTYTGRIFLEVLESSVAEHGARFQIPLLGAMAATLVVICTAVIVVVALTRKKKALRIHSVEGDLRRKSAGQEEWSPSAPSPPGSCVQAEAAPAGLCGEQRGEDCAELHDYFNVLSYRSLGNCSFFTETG

[2] = biological target: human IL-12 receptor complex (IL-12Rβ1 and IL-12Rβ2) (human, UniProt P42701 24-662; Q99665 24-862)
Chain of human IL-12 receptor complex (IL-12Rβ1 and IL-12Rβ2) (Q99665 24-862, chain 2 of 2, other chains not shown): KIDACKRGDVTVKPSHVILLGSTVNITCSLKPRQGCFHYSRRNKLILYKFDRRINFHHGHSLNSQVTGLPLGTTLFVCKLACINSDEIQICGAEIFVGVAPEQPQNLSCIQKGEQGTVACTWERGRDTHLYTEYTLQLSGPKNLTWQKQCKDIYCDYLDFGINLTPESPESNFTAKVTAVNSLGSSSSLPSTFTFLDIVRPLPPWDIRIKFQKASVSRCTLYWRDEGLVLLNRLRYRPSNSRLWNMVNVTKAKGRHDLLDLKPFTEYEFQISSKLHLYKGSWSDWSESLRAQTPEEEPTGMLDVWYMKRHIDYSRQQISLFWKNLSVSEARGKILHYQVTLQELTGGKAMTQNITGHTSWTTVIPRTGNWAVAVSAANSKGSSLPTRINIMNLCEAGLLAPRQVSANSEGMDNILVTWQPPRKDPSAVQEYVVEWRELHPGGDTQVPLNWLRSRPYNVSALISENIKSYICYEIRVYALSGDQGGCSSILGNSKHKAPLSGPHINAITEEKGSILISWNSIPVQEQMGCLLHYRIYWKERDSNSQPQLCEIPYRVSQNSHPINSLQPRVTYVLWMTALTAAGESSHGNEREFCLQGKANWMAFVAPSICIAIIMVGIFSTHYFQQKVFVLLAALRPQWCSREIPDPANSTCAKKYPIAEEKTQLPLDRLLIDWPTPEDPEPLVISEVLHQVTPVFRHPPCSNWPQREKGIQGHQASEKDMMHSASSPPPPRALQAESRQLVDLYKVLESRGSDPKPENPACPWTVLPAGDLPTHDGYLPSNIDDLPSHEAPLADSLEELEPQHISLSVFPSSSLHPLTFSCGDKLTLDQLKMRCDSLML

[3] = biological target: T2, IFN-γ receptor (IFNGR1 and IFNGR2) (UniProt P15260 18-489; P38484 22-337, limits assumed)
T2 sequence (looked up) 1: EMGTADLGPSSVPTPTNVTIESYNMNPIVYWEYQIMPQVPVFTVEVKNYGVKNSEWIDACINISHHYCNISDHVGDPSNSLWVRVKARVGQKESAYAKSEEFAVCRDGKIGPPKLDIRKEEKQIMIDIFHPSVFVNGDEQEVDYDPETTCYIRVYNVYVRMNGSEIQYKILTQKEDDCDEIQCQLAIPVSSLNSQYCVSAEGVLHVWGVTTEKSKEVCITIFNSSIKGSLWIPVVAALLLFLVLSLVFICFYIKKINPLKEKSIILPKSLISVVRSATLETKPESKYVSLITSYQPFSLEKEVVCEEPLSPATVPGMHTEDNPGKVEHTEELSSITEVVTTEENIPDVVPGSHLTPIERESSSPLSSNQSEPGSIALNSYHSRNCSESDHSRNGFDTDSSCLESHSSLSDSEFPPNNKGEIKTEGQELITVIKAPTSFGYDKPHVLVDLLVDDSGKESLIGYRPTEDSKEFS
T2 sequence (looked up) 2: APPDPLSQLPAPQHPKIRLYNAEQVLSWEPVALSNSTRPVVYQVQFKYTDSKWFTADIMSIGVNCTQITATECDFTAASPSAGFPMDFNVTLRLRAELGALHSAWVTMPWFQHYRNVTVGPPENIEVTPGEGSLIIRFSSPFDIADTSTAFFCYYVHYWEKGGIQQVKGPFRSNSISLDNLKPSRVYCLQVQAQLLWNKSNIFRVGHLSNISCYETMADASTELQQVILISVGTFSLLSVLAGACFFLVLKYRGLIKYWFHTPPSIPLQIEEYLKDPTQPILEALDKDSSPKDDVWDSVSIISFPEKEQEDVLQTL

B1: IL-12(E59A/F60A)/IFN-γ(A23V/A23V)/CD155-Fc (Fc fusion)
chain 1: WPPPGTGDVVVQAPTQVPGFLGDSVTLPCYLQVPNMEVTHVSQLTWARHGESGSMAVFHQTQGPSYSESKRLEFVAARLGAELRNASLRMFGLRVEDEGNYTCLFVTFPQGSRSVDIWLRVLAKPQNTAEVQKVQLTGEPVPMARCVSTGGRPPAQITWHSDLGGMPNTSQVPGFLSGTVTVTSLWILVPSSQVDGKNVTCKVEHESFEKPQLLTVNLTVYYPPEVSISGYDNNWYLGQNEATLTCDARSNPEPTGYNWSTTMGPLPPFAVAQGAQLLIRPVDKPINTTLICNVTNALGARQAELTVQVKEGPPSEHSGISRNGGGGSGGGIWELKKDVYVVELDWYPDAPGEMVVLTCDTPEEDGITWTLDQSSEVLGSGKTLTIQVKAAGDAGQYTCHKGGEVLSHSLLLLHKKEDGIWSTDILKDQKEPKNKTFLRCEAKNYSGRFTCWWLTTISTDLTFSVKSSRGSSDPQGVTCGAATLSAERVRGDNKEYEYSVECQEDSACPAAEESLPIEVMVDAVHKLKYENYTSSFFIRDIIKPDPPKNLQLKPLKNSRQVEVSWEYPDTWSTPHSYFSLTFCVQVQGKSKREKKDRVFTDKTSATVICRKNASISVRAQDRYYSSSWSEWASVPCSGGGGSGGGSGGGGSRNLPVATPDPGMFPCLHHSQNLLRAVSNMLQKARQTLEFYPCTSEEIDHEDITKDKTSTVEACLPLELTKNESCLNSRETSFITNGSCLASRKTSFMMALCLSSIYEDLKMYQVEFKTMNAKLLMDPKRQIFLDQNMLAVIDELMQALNFNSETVPQKSSLEEPDFYKTKIKLCILLHAFRIRAVTIDRVMSYLNASGGGGSGGGDKTHTCPPCPAPEDEGGPSVFLFPPKPKDTLMISRTPEVTCVVVDVSHEDPEVKFNWYVDGVEVHNAKTKPREEQYNSTYRVVSVLTVLHQDWLNGKEYKCKVSNKALPAPIEKTISKAKGQPREPQVYVYPPSREEMTKNQVSLTCLVKGFYPSDIAVEWESNGQPENNYKTTPPVLDEDGSFALVSKLTVDKSRWQQGNVFSCSVMHEALHNHYTQKSLSLSPGK
chain 2: WPPPGTGDVVVQAPTQVPGFLGDSVTLPCYLQVPNMEVTHVSQLTWARHGESGSMAVFHQTQGPSYSESKRLEFVAARLGAELRNASLRMFGLRVEDEGNYTCLFVTFPQGSRSVDIWLRVLAKPQNTAEVQKVQLTGEPVPMARCVSTGGRPPAQITWHSDLGGMPNTSQVPGFLSGTVTVTSLWILVPSSQVDGKNVTCKVEHESFEKPQLLTVNLTVYYPPEVSISGYDNNWYLGQNEATLTCDARSNPEPTGYNWSTTMGPLPPFAVAQGAQLLIRPVDKPINTTLICNVTNALGARQAELTVQVKEGPPSEHSGISRNGGGSGQDPYVKEAENLKKYFNAGHSDVVDNGTLFLGILKNWKEESDRKIMQSQIVSFYFKLFKNFKDDQSIQKSVETIKEDMNVKFFNSNKKKRDDFEKLTNYSVTDLNVQRKAIHELIQVMAELSPAAKTGKRKRSQMLFRGGGGSGGGGSGGGGSGGGGSQDPYVKEAENLKKYFNAGHSDVVDNGTLFLGILKNWKEESDRKIMQSQIVSFYFKLFKNFKDDQSIQKSVETIKEDMNVKFFNSNKKKRDDFEKLTNYSVTDLNVQRKAIHELIQVMAELSPAAKTGKRKRSQMLFRGGGGGSGGGDKTHTCPPCPAPEKKGGPSVFLFPPKPKDTLMISRTPEVTCVVVDVSHEDPEVKFNWYVDGVEVHNAKTKPREEQYNSTYRVVSVLTVLHQDWLNGKEYKCKVSNKALPAPIEKTISKAKGQPREPQVYVLPPSREEMTKNQVSLLCLVKGFYPSDIAVEWESNGQPENRYMTWPPVLDSDGSFFLYSKLTVDKSRWQQGNVFSCSVMHEALHNHYTQKSLSLSPGK
IL-12 signal transduction, HEK-IL-12-TIGIT [1]: 40% | IL-12 signal transduction, HEK-IL-12 [2]: < 0.2% | IFN-γ signal transduction, HEK-IFN-γ [3]: < 0.2%

B2: IFN-γ(A23V/A23V)/CD155-Fc (Fc fusion)
chain 1: WPPPGTGDVVVQAPTQVPGFLGDSVTLPCYLQVPNMEVTHVSQLTWARHGESGSMAVFHQTQGPSYSESKRLEFVAARLGAELRNASLRMFGLRVEDEGNYTCLFVTFPQGSRSVDIWLRVLAKPQNTAEVQKVQLTGEPVPMARCVSTGGRPPAQITWHSDLGGMPNTSQVPGFLSGTVTVTSLWILVPSSQVDGKNVTCKVEHESFEKPQLLTVNLTVYYPPEVSISGYDNNWYLGQNEATLTCDARSNPEPTGYNWSTTMGPLPPFAVAQGAQLLIRPVDKPINTTLICNVTNALGARQAELTVQVKEGPPSEHSGISRNGGGGSGGGDKTHTCPPCPAPEDEGGPSVFLFPPKPKDTLMISRTPEVTCVVVDVSHEDPEVKFNWYVDGVEVHNAKTKPREEQYNSTYRVVSVLTVLHQDWLNGKEYKCKVSNKALPAPIEKTISKAKGQPREPQVYVYPPSREEMTKNQVSLTCLVKGFYPSDIAVEWESNGQPENNYKTTPPVLDEDGSFALVSKLTVDKSRWQQGNVFSCSVMHEALHNHYTQKSLSLSPGK
chain 2: WPPPGTGDVVVQAPTQVPGFLGDSVTLPCYLQVPNMEVTHVSQLTWARHGESGSMAVFHQTQGPSYSESKRLEFVAARLGAELRNASLRMFGLRVEDEGNYTCLFVTFPQGSRSVDIWLRVLAKPQNTAEVQKVQLTGEPVPMARCVSTGGRPPAQITWHSDLGGMPNTSQVPGFLSGTVTVTSLWILVPSSQVDGKNVTCKVEHESFEKPQLLTVNLTVYYPPEVSISGYDNNWYLGQNEATLTCDARSNPEPTGYNWSTTMGPLPPFAVAQGAQLLIRPVDKPINTTLICNVTNALGARQAELTVQVKEGPPSEHSGISRNGGGSGQDPYVKEAENLKKYFNAGHSDVVDNGTLFLGILKNWKEESDRKIMQSQIVSFYFKLFKNFKDDQSIQKSVETIKEDMNVKFFNSNKKKRDDFEKLTNYSVTDLNVQRKAIHELIQVMAELSPAAKTGKRKRSQMLFRGGGGSGGGGSGGGGSGGGGSQDPYVKEAENLKKYFNAGHSDVVDNGTLFLGILKNWKEESDRKIMQSQIVSFYFKLFKNFKDDQSIQKSVETIKEDMNVKFFNSNKKKRDDFEKLTNYSVTDLNVQRKAIHELIQVMAELSPAAKTGKRKRSQMLFRGGGGGSGGGDKTHTCPPCPAPEKKGGPSVFLFPPKPKDTLMISRTPEVTCVVVDVSHEDPEVKFNWYVDGVEVHNAKTKPREEQYNSTYRVVSVLTVLHQDWLNGKEYKCKVSNKALPAPIEKTISKAKGQPREPQVYVLPPSREEMTKNQVSLLCLVKGFYPSDIAVEWESNGQPENRYMTWPPVLDSDGSFFLYSKLTVDKSRWQQGNVFSCSVMHEALHNHYTQKSLSLSPGK
IFN-γ signal transduction, HEK-IFN-γ [3]: < 0.2%

Source: patent US20240392004A1 (IMMUNOWAKE, published 2024)
